Here are results for two substances from paper PMC9218434.

For the test, the target named is nucleosome core particle (NCP) of human histones H2A, H2B, H3.1 and H4 with the 145 base-pair Widom 601 DNA, P04908;P06899;P68431;P62805. The experiment in a line: electrophoretic mobility shift assay. The following applies: non-denaturing 4% polyacrylamide gel, SYBR Gold staining, n = 3, read off a plot. (A gel shift assay detects complexes by their altered migration in electrophoresis.)

As for “p300(BRPH_(ΔAIL)Z), catalytic core of human p300 (aa 1035-1720, Y1467F, autoinhibition loop replaced by a linker) (from UniProt Q09472) K1456A; K1459A; K1461A; R1462A”, the response (0.4 µM p300(BRPHΔAILZ), parent: est. 48) worked out at 2.5%; the response (0.8 µM p300(BRPHΔAILZ), parent: est. 71) was 6%; the response (1.2 µM p300(BRPHΔAILZ), parent: est. 82) was 8.5%.
Regarding “p300(BRPH_(ΔAIL)Z), catalytic core of human p300 (aa 1035-1720, Y1467F, autoinhibition loop replaced by a linker) (from UniProt Q09472) R1137A”, the response was 3.3% (0.4 µM p300(BRPHΔAILZ), parent: est. 41); 8% (0.8 µM p300(BRPHΔAILZ), parent: est. 62); 13% (1.2 µM p300(BRPHΔAILZ), parent: est. 75).
